The source of these data is the supplement of paper PMC5998384.

Data set [1] relates to HeLa Kyoto. The data set is described as follows: solubility in G1/S (NP-40 vs SDS abundance) (log2 ratio); higher = more soluble. The conditions noted are these: cell cycle stage: G1/S.
Data set [2] has as its system HeLa Kyoto. The data set can be described thus: thermal stability score vs G1/S (z-score of summed log2 fold changes over temperatures); higher = more thermally stable than in G1/S.
In data set [3] the test system is HeLa Kyoto. The data set can be described thus: solubility change mitosis vs G1/S (difference of NP-40 vs SDS log2 ratios) (log2 ratio difference); higher = more soluble in mitosis.
Data set [4] deals with HeLa Kyoto. The data set is described as follows: melting temperature (median over replicates), in situ; higher = more thermally stable.
Where [5] appears, read: cell cycle stage: early G1 (4.5 h after nocodazole release).
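For melting temperature (median over replicates), in situ in this document: HeLa Kyoto cells synchronized by double thymidine or nocodazole block, proteins quantified by TMT10plex mass spectrometry, three independent biological replicates.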
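For solubility change mitosis vs G1/S (difference of NP-40 vs SDS log2 ratios) in this document: synchronized HeLa Kyoto cells (double thymidine block for G1/S, nocodazole release for mitosis), protein amounts in NP-40 versus SDS lysates quantified by mass spectrometry, three biological replicates.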
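For solubility in G1/S (NP-40 vs SDS abundance) in this document: HeLa Kyoto cells arrested at G1/S by double thymidine block, proteins quantified by TMT10plex mass spectrometry in mild NP-40 versus SDS extracts, three biological replicates.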
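For thermal stability score vs G1/S (z-score of summed log2 fold changes over temperatures) in this document: synchronized HeLa Kyoto cells, proteins quantified by TMT10plex mass spectrometry, three biological replicates, mitosis taken 0.5 h after nocodazole release, G1/S directly after double thymidine block.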

As for “MTTFGAVAEWRLPSLRRATLWIPQWFAKKAIFNSPLEAAMAFPHLQQPSFLLASLKADSINKPFAQQCQDLVKVIEDFPAKELHTIFPWLVESIFGSLDGVLVGWNLRCLQGRVNPVEYSIVMEFLDPGGPMMKLVYKLQAEDYKFDFPVSYLPGPVKASIQECILPDSPLYHNKVQFTPTGGLGLNLALNPFEYYIFFFALSLITQKPLPVSLHVRTSDCAYFILVDRYLSWFLPTEGSVPPPLSSSPGGTSPSPPPRTPAIPFASYGLHHTSLLKRHISHQTSVNADPASHEIWRSETLLQVFVEMWLHHYSLEMYQKMQSPHAKLEVLHYRLSVSSALYSPAQPSLQALHAYQESFTPTEEHVLVVRLLLKHLHAFANSLKPEQASPSAHSHATSPLEEFKRAAVPRFVQQKLYLFLQHCFGHWPLDASFRAVLEMWLSYLQPWRYAPDKQAPGSDSQPRCVSEKWAPFVQENLLMYTKLFVGFLNRALRTDLVSPKHALMVFRVAKVFAQPNLAEMIQKGEQLFLEPELVIPHRQHRLFTAPTFTGSFLSPWPPAVTDASFKVKSHVYSLEGQDCKYTPMFGPEARTLVLRLAQLITQAKHTAKSISDQCAESPAGHSFLSWLGFSSMDTNGSYTANDLDEMGQDSVRKTDEYLEKALEYLRQIFRLSEAQLRQFTLALGTTQDENGKKQLPDCIVGEDGLILTPLGRYQIINGLRRFEIEYQGDPELQPIRSYEIASLVRTLFRLSSAINHRFAGQMAALCSRDDFLGSFCRYHLTEPGLASRHLLSPVGRRQVAGHTRGPRLSLRFLGSYRTLVSLLLAFFVASLFCVGPLPCTLLLTLGYVLYASAMTLLTERGKLHQP [SMPD4]”, in the data set on HeLa Kyoto [1], the “solubility in G1/S (log2)” value is -0.601. Moreover, the thermal stability score in the data set with HeLa Kyoto [2] (setting [5]) is -0.683; with HeLa Kyoto [2] (cell cycle stage: mitosis) it was -0.99. The “solubility change mitosis (log2)” value with HeLa Kyoto [3] is 0.185. In addition, the melting temperature in the data set with HeLa Kyoto [4] (cell cycle stage: G1/S) was found to be 51.7 °C; in the data set with HeLa Kyoto [4] (cell cycle stage: mitosis) it was 50.2 °C.

For “MLPGLAAAAAHRCSWSSLCRLRLRCRAAACNPSDRQEWQNLVTFGSFSNMVPCSHPYIGTLSQVKLYSTNVQKEGQGSQTLRVEKVPSFETAEGIGTELKAPLKQEPLQVRVKAVLKKREYGSKYTQNNFITGVRAINEFCLKSSDLEQLRKIRRRSPHEDTESFTVYLRSDVEAKSLEVWGSPEALAREKKLRKEAEIEYRERLFRNQKILREYRDFLGNTKPRSRTASVFFKGPGKVVMVAICINGLNCFFKFLAWIYTGSASMFSEAIHSLSDTCNQGLLALGISKSVQTPDPSHPYGFSNMRYISSLISGVGIFMMGAGLSWYHGVMGLLHPQPIESLLWAYCILAGSLVSEGATLLVAVNELRRNARAKGMSFYKYVMESRDPSTNVILLEDTAAVLGVIIAATCMGLTSITGNPLYDSLGSLGVGTLLGMVSAFLIYTNTEALLGRSIQPEQVQRLTELLENDPSVRAIHDVKATDLGLGKVRFKAEVDFDGRVVTRSYLEKQDFDQMLQEIQEVKTPEELETFMLKHGENIIDTLGAEVDRLEKELKKRNPEVRHVDLEIL [SLC30A9]”, the “solubility in G1/S (log2)” value with HeLa Kyoto [1] was -0.0134. The thermal stability score in the data set on HeLa Kyoto [2] (setting [5]) was -0.0363; with HeLa Kyoto [2] (cell cycle stage: mitosis), -0.00857. The “solubility change mitosis (log2)” value with HeLa Kyoto [3] is -0.0502. The melting temperature in the data set with HeLa Kyoto [4] (cell cycle stage: G1/S) came to 51.1 °C; with HeLa Kyoto [4] (cell cycle stage: mitosis), 51.9 °C.

Turning to “MASVTRAVFGELPSGGGTVEKFQLQSDLLRVDIISWGCTITALEVKDRQGRASDVVLGFAELEGYLQKQPYFGAVIGRVANRIAKGTFKVDGKEYHLAINKEPNSLHGGVRGFDKVLWTPRVLSNGVQFSRISPDGEEGYPGELKVWVTYTLDGGELIVNYRAQASQATPVNLTNHSYFNLAGQASPNINDHEVTIEADTYLPVDETLIPTGEVAPVQGTAFDLRKPVELGKHLQDFHLNGFDHNFCLKGSKEKHFCARVHHAASGRVLEVYTTQPGVQFYTGNFLDGTLKGKNGAVYPKHSGFCLETQNWPDAVNQPRFPPVLLRPGEEYDHTTWFKFSVA [GALM]”, the “solubility in G1/S (log2)” value in the data set on HeLa Kyoto [1] came to 0.236. Also, the thermal stability score is -0.647 in the data set with HeLa Kyoto [2] (setting [5]) and -0.863 in the data set with HeLa Kyoto [2] (cell cycle stage: mitosis). In the data set on HeLa Kyoto [3], the “solubility change mitosis (log2)” value was -0.0325. This substance showed a melting temperature in the data set with HeLa Kyoto [4] (cell cycle stage: mitosis) of 51.4 °C.

For the substance “MSCCDLAAAGQLGKASIMASDCEPALNQAEGRNPTLERYLGALREAKNDSEQFAALLLVTKAVKAGDIDAKTRRRIFDAVGFTFPNRLLTTKEAPDGCPDHVLRALGVALLACFCSDPELAAHPQVLNKIPILSTFLTARGDPDDAARRSMIDDTYQCLTAVAGTPRGPRHLIAGGTVSALCQAYLGHGYGFDQALALLVGLLAAAETQCWKEAEPDLLAVLRGLSEDFQKAEDASKFELCQLLPLFLPPTTVPPECYRDLQAGLARILGSKLSSWQRNPALKLAARLAHACGSDWIPAGSSGSKFLALLVNLACVEVRLALEETGTEVKEDVVTACYALMELGIQECTRCEQSLLKEPQKVQLVSVMKEAIGAVIHYLLQVGSEKQKEPFVFASVRILGAWLAEETSSLRKEVCQLLPFLVRYAKTLYEEAEEANDLSQQVANLAISPTTPGPTWPGDALRLLLPGWCHLTVEDGPREILIKEGAPSLLCKYFLQQWELTSPGHDTSVLPDSVEIGLQTCCHIFLNLVVTAPGLIKRDACFTSLMNTLMTSLPALVQQQGRLLLAANVATLGLLMARLLSTSPALQGTPASRGFFAAAILFLSQSHVARATPGSDQAVLALSPEYEGIWADLQELWFLGMQAFTGCVPLLPWLAPAALRSRWPQELLQLLGSVSPNSVKPEMVAAYQGVLVELARANRLCREAMRLQAGEETASHYRMAALEQCLSEP [NCDN]”, in the data set with HeLa Kyoto [1], the “solubility in G1/S (log2)” value came to 0.191. For the same substance, the results for the thermal stability score in the data set on HeLa Kyoto [2] (setting [5]) and in the data set with HeLa Kyoto [2] (cell cycle stage: mitosis) were 1.7 and 2.44, respectively. The “solubility change mitosis (log2)” value in the data set on HeLa Kyoto [3] was -0.084. The melting temperature with HeLa Kyoto [4] (cell cycle stage: G1/S) amounted to 49.8 °C; in the data set with HeLa Kyoto [4] (cell cycle stage: mitosis), 50.2 °C.

Take CLASP1: the “solubility in G1/S (log2)” value in the data set with HeLa Kyoto [1] was -0.0269. In addition, the thermal stability score is -0.916 in the data set with HeLa Kyoto [2] (setting [5]) and 0.139 in the data set on HeLa Kyoto [2] (cell cycle stage: mitosis). Also, the “solubility change mitosis (log2)” value with HeLa Kyoto [3] was -0.0633. Moreover, the figures for the melting temperature with HeLa Kyoto [4] (cell cycle stage: G1/S) and in the data set on HeLa Kyoto [4] (cell cycle stage: mitosis) were 48.8 °C and 49.2 °C, respectively.
